From the supplement of paper PMC9233669 come the findings set out here.

The subject of one data set is biotinyl-Trp-oxazolone. As to the kind of experiment: self-aminoacylation, catalytic enhancement (BWO) (fold over background); higher = more active; k-Seq, kA / k0A0; sequences stand for … in GGGAAUGGAUCCACAUCUACGAAUUC…UUCACUGCAGACUUGACGAAGCUG
The essentials:
(§1)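 Working in 50 μL HEPES/NaCl/KCl/MgCl2/CaCl2 buffer with 5% acetonitrile at pH 6.9–7.0, mutagenized RNA pools (0.43 μM; 21-nt variable region) were reacted with 2–1250 μM of each biotinyl-aminoacyl-oxazolone for 90 minutes at room temperature. Streptavidin capture followed, with quantification by triplicate qPCR and Illumina sequencing. Catalytic enhancement is reported as median kA over the uncatalyzed rate, the low-activity peak of a bimodal Gaussian fit to the data.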

The subject of the next data set is biotinyl-Phe-oxazolone. As to the kind of experiment: self-aminoacylation, catalytic enhancement (BFO) (fold over background); higher = more active; k-Seq, kA / k0A0; sequences stand for … in GGGAAUGGAUCCACAUCUACGAAUUC…UUCACUGCAGACUUGACGAAGCUG
An outline of the steps:
as §1

This sample holds only a part of the variants without activity.

Consider “UUAAUUCAAACAAUCGGUCUG [Fam1A.1 aminoacylation ribozyme variant]”, for which the self-aminoacylation in the data set with biotinyl-Trp-oxazolone was determined as 2.47; in the data set with biotinyl-Phe-oxazolone it was 3.57.
Regarding “CCCCACUUCUAGCAAUCGGUC [Fam1B.1 aminoacylation ribozyme variant]”, the self-aminoacylation turned out to be 2.23 in the data set with biotinyl-Trp-oxazolone and 2.55 with biotinyl-Phe-oxazolone.
In the case of “CAAGACUUCAAGCAAUCGGUC [Fam1B.1 aminoacylation ribozyme variant]”, the self-aminoacylation in the data set with biotinyl-Trp-oxazolone came out at 9.73; in the data set with biotinyl-Phe-oxazolone it was 15.3.
For “AUACUUCAAACAAUCGGUCUC [Fam1A.1 aminoacylation ribozyme variant]”, the results for the self-aminoacylation in the data set with biotinyl-Trp-oxazolone and in the data set on biotinyl-Phe-oxazolone were 7.89 and 13.5, respectively.
As to “AAGUUUGCUAGUAGUCGCACG [Fam3.1 aminoacylation ribozyme variant]”, the self-aminoacylation in the data set on biotinyl-Trp-oxazolone was 2.21; with biotinyl-Phe-oxazolone, 3.09.
Turning to “UAGUUUGCUAAUAGUCGGAAG [Fam3.1 aminoacylation ribozyme variant]”, the self-aminoacylation in the data set with biotinyl-Trp-oxazolone turned out to be 2.37; in the data set on biotinyl-Phe-oxazolone it was 6.04.
For the sequence “CUACUUCAAACAAUCGGUCGU [Fam1A.1 aminoacylation ribozyme variant]”, the values for the self-aminoacylation in the data set with biotinyl-Trp-oxazolone and with biotinyl-Phe-oxazolone were 10.3 and 16.3, respectively.
Take “ACUCACUUCAAGCAAUCGGUC [Fam1B.1 aminoacylation ribozyme variant]”: the self-aminoacylation in the data set with biotinyl-Trp-oxazolone came to 5.36; in the data set with biotinyl-Phe-oxazolone it was 9.3.
On to “CUCCCUCAAACAAUCGGUCUG [Fam1A.1 aminoacylation ribozyme variant]”, for which the self-aminoacylation with biotinyl-Trp-oxazolone stood at 3.48; with biotinyl-Phe-oxazolone, 3.26.
“CGACUUCAAACAAUCGGUCUA [Fam1A.1 aminoacylation ribozyme variant]”: the results for the self-aminoacylation in the data set with biotinyl-Trp-oxazolone and with biotinyl-Phe-oxazolone were 6.02 and 12.7, respectively.
On the same counts, the results for “CUAGUUCAAACAAUCGGUUUG [Fam1A.1 aminoacylation ribozyme variant]” are 3.41 and 4.59.
Consider “CUACUUACAACAAUCGGUCUG [Fam1A.1 aminoacylation ribozyme variant]”, for which the figures for the self-aminoacylation with biotinyl-Trp-oxazolone and with biotinyl-Phe-oxazolone were 2.34 and 3.29, respectively.
For the sequence “CUACUUCAACCAAUCGGUUUG [Fam1A.1 aminoacylation ribozyme variant]”, the self-aminoacylation was found to be 10.8 in the data set with biotinyl-Trp-oxazolone and 17 in the data set with biotinyl-Phe-oxazolone.
The like results for “CCAUACUUCAAACAAUCGGUC [Fam1B.1 aminoacylation ribozyme variant]” were, in that order, 30.3 and 66.4.
For “CAACUUCAAACAAUCGGUCAG [Fam1A.1 aminoacylation ribozyme variant]”, the results for the self-aminoacylation with biotinyl-Trp-oxazolone and in the data set on biotinyl-Phe-oxazolone were 11.9 and 19.5, respectively.
Take “CCACACUUCAACCAAUCGGUU [Fam1B.1 aminoacylation ribozyme variant]”: the self-aminoacylation was determined as 11.9 in the data set with biotinyl-Trp-oxazolone and 12.3 in the data set with biotinyl-Phe-oxazolone.
“CUACACUUCAAUCAAUCGGUC [Fam1B.1 aminoacylation ribozyme variant]”: the self-aminoacylation in the data set with biotinyl-Trp-oxazolone came out at 18.5; in the data set on biotinyl-Phe-oxazolone, 37.4.
As for “CAACUUCAAACAAUCUGUCUG [Fam1A.1 aminoacylation ribozyme variant]”, the self-aminoacylation was 2.14 in the data set on biotinyl-Trp-oxazolone and 4.35 with biotinyl-Phe-oxazolone.
As to “CUGGUUCAAACAAUCGGUCUG [Fam1A.1 aminoacylation ribozyme variant]”, the self-aminoacylation in the data set on biotinyl-Trp-oxazolone stood at 9.11; with biotinyl-Phe-oxazolone it was 14.
In the case of “AUGACCCUGGUCAUCGAGUCA [Fam2.1 aminoacylation ribozyme variant]”, in the data set on biotinyl-Trp-oxazolone, the self-aminoacylation was found to be 2.12.
“CUAGUUCAAUCAAUCGGUCUG [Fam1A.1 aminoacylation ribozyme variant]”: the figures for the self-aminoacylation in the data set on biotinyl-Trp-oxazolone and in the data set with biotinyl-Phe-oxazolone were 2.63 and 3.97, respectively.
In the case of “UUACUUCAAACAAUCGGUCUA [Fam1A.1 aminoacylation ribozyme variant]”, the self-aminoacylation in the data set with biotinyl-Trp-oxazolone was found to be 2.61; in the data set on biotinyl-Phe-oxazolone it was 6.02.
Take “UAGUUUGCUAAUAGUCGUAAG [Fam3.1 aminoacylation ribozyme variant]”: the values for the self-aminoacylation with biotinyl-Trp-oxazolone and with biotinyl-Phe-oxazolone were 4.18 and 17.9, respectively.
On to “AUUACCCUGGUCAUCCAGUAA [Fam2.1 aminoacylation ribozyme variant]”, for which the self-aminoacylation with biotinyl-Trp-oxazolone was 2.35.
For the sequence “CCAGACUUCAAGGAAUCGGUC [Fam1B.1 aminoacylation ribozyme variant]”, the self-aminoacylation was 5.9 with biotinyl-Trp-oxazolone and 6.35 in the data set with biotinyl-Phe-oxazolone.
Consider “GUACUUCAAACAAUCGGUCCG [Fam1A.1 aminoacylation ribozyme variant]”, for which the results for the self-aminoacylation in the data set on biotinyl-Trp-oxazolone and with biotinyl-Phe-oxazolone were 3.6 and 6.11, respectively.
Consider “AAGAUUGCUUAUAGUCGCAAG [Fam3.1 aminoacylation ribozyme variant]”, for which the self-aminoacylation in the data set with biotinyl-Trp-oxazolone stood at 2.35; in the data set on biotinyl-Phe-oxazolone it was 2.44.
As to “CGACCCUUCAAGCAAUCGGUC [Fam1B.1 aminoacylation ribozyme variant]”, the self-aminoacylation with biotinyl-Trp-oxazolone came out at 3.13; with biotinyl-Phe-oxazolone it was 3.2.
For “CUACUUCAAACAAUCUCUCUG [Fam1A.1 aminoacylation ribozyme variant]”, the self-aminoacylation came out at 4.21 in the data set on biotinyl-Trp-oxazolone and 10.1 with biotinyl-Phe-oxazolone.
Turning to “CUACUUCAAACAAUCGGUCAG [Fam1A.1 aminoacylation ribozyme variant]”, the results for the self-aminoacylation with biotinyl-Trp-oxazolone and with biotinyl-Phe-oxazolone were 7.09 and 16.7, respectively.
On the same counts, the results for “CCACCCUUCAAUCAAUCGGUC [Fam1B.1 aminoacylation ribozyme variant]” are 20.9 and 28.6.
Regarding “AAGUUUGCUAAUAGCCGCAAG [Fam3.1 aminoacylation ribozyme variant]”, the values for the self-aminoacylation in the data set on biotinyl-Trp-oxazolone and with biotinyl-Phe-oxazolone were 2.2 and 6.96, respectively.
Consider “CUCCUUCAAAGAAUCGGUCUG [Fam1A.1 aminoacylation ribozyme variant]”, for which the self-aminoacylation came out at 5.66 in the data set with biotinyl-Trp-oxazolone and 6.59 in the data set on biotinyl-Phe-oxazolone.
The like results for “CUACAGUUCAAGCAAUCGGUC [Fam1B.1 aminoacylation ribozyme variant]” were, in that order, 2.96 and 4.84.
In the case of “CCACUUCAAACGAUCGGUCUG [Fam1A.1 aminoacylation ribozyme variant]”, the figures for the self-aminoacylation in the data set with biotinyl-Trp-oxazolone and in the data set on biotinyl-Phe-oxazolone were 2.62 and 3.03, respectively.
As for “CAACGUCAAACAAUCGGUCUG [Fam1A.1 aminoacylation ribozyme variant]”, the self-aminoacylation in the data set on biotinyl-Trp-oxazolone is 2.6; with biotinyl-Phe-oxazolone, 3.29.
Consider “CUACUUCAAACAAUCGGUCUU [Fam1A.1 aminoacylation ribozyme variant]”, for which the values for the self-aminoacylation with biotinyl-Trp-oxazolone and with biotinyl-Phe-oxazolone were 15.3 and 31.2, respectively.
In the case of “UUACUUCAAACAAUCAGUCUG [Fam1A.1 aminoacylation ribozyme variant]”, the self-aminoacylation came to 9.66 with biotinyl-Trp-oxazolone and 20.1 with biotinyl-Phe-oxazolone.
Take “UCAUACUUCAAGCAAUCGGUC [Fam1B.1 aminoacylation ribozyme variant]”: the values for the self-aminoacylation in the data set on biotinyl-Trp-oxazolone and in the data set on biotinyl-Phe-oxazolone were 9.74 and 16.9, respectively.
“CUAGUUCAAACAAUCGGUCUG [Fam1A.1 aminoacylation ribozyme variant]”: the values for the self-aminoacylation in the data set on biotinyl-Trp-oxazolone and with biotinyl-Phe-oxazolone were 6.47 and 11, respectively.
For the sequence “CUACUUCAAACAAUCGGUCAC [Fam1A.1 aminoacylation ribozyme variant]”, the self-aminoacylation in the data set on biotinyl-Trp-oxazolone stood at 8.51; in the data set on biotinyl-Phe-oxazolone it was 23.1.
Take “CCACUUCAAAUAAUCGGUCUG [Fam1A.1 aminoacylation ribozyme variant]”: the results for the self-aminoacylation in the data set with biotinyl-Trp-oxazolone and in the data set on biotinyl-Phe-oxazolone were 15.2 and 17.9, respectively.
For “AUUCACCUAGUUCAUCGGGUA [Fam2.2 aminoacylation ribozyme variant]”, the values for the self-aminoacylation in the data set with biotinyl-Trp-oxazolone and in the data set on biotinyl-Phe-oxazolone were 2.37 and 5.42, respectively.
The like results for “CCACUUCAAAAAAUCGGUCUG [Fam1A.1 aminoacylation ribozyme variant]” were, in that order, 12.1 and 15.2.
Take “AAAUUUGCUAAUAGUCGCAAG [Fam3.1 aminoacylation ribozyme variant]”: the results for the self-aminoacylation in the data set on biotinyl-Trp-oxazolone and with biotinyl-Phe-oxazolone were 2.13 and 4, respectively.
As for “CCACUUCAAACAUUCGGUCUG [Fam1A.1 aminoacylation ribozyme variant]”, the self-aminoacylation in the data set with biotinyl-Trp-oxazolone amounted to 2.73; with biotinyl-Phe-oxazolone, 5.58.
For the sequence “CCACUCUUCAAGGAAUCGGUC [Fam1B.1 aminoacylation ribozyme variant]”, the values for the self-aminoacylation with biotinyl-Trp-oxazolone and with biotinyl-Phe-oxazolone were 3.24 and 3, respectively.
Regarding “AAGUUUUCUAUUAGUCGCAAG [Fam3.1 aminoacylation ribozyme variant]”, the self-aminoacylation in the data set on biotinyl-Trp-oxazolone came to 2.07; in the data set on biotinyl-Phe-oxazolone it was 2.22.
In the case of “AAGUGUGCUAAUAGUCGAAAG [Fam3.1 aminoacylation ribozyme variant]”, the values for the self-aminoacylation in the data set on biotinyl-Trp-oxazolone and with biotinyl-Phe-oxazolone were 4.55 and 11.5, respectively.
On the same counts, the results for “CCACACUUCAAGUAAUCGGUC [Fam1B.1 aminoacylation ribozyme variant]” are 9.7 and 16.4.
On to “CUACACUUCAAGCAAUCGGUC [Fam1B.1 aminoacylation ribozyme variant]”, for which the self-aminoacylation came out at 22.8 with biotinyl-Trp-oxazolone and 54.5 in the data set with biotinyl-Phe-oxazolone.
With “AAGAUUGCUAAUAGUCGUAAG [Fam3.1 aminoacylation ribozyme variant]”, the self-aminoacylation in the data set with biotinyl-Trp-oxazolone is 2.41; in the data set on biotinyl-Phe-oxazolone, 9.9.
Regarding “CCGCACUUCAAGCAAUCGGUA [Fam1B.1 aminoacylation ribozyme variant]”, the self-aminoacylation in the data set with biotinyl-Trp-oxazolone came to 2.16.
